Ends that are not written are not given here.
How the values were obtained:
[1] = target: T1, TAEKDEL retrieval signal peptide (BiP) (Homo sapiens); assay: [3H]-peptide filter binding assay
T1 chain: TAEKDEL

[2] = target: T2, TAEHDEL retrieval signal peptide; assay: [3H]-peptide filter binding assay
T2 chain: TAEHDEL

[3] = target: T3, TAERDEL retrieval signal peptide; assay: peptide binding assay
T3 chain: TAERDEL

[4] = target: T4, TAEDDEL retrieval signal peptide; assay: peptide binding assay
T4 chain: TAEDDEL

[5] = target: T5, TAEHDEL-CONH retrieval signal peptide; assay: competition binding with [3H]-TAEHDEL
T5 chain: TAEHDEL-NH2

[6] = target: T2, TAEHDEL retrieval signal peptide; assay: competition binding with [3H]-TAEHDEL
[7] = target: T1, TAEKDEL retrieval signal peptide (BiP); assay: [3H]-peptide filter binding assay, pH 5.4
[8] = target: T2, TAEHDEL retrieval signal peptide; assay: [3H]-peptide filter binding assay, pH 5.4

Kd [1]: 1.94 µM | Kd [2]: 0.24 µM | Kd [3]: 2.71 µM | Kd [4]: 14.9 µM | IC50 [5]: 1700 µM | IC50 [6]: 19 µM | Kd [7]: 1.9 µM | Kd [8]: 0.26 µM
B1: KDEL receptor 2 (protein)
chain: MNIFRLTGDLSHLAAIIILLLKIWKSRSCAGISGKSQLLFALVFTTRYLDLFTSFISLYNTSMKLIYIACSYATVYLIYMKFKATYDGNHDTFRVEFLIVPVGGLSFLVNHDFSPLEILWTFSIYLESVAILPQLFMISKTGEAETITTHYLFFLGLYRALYLVNWIWRYYFEGFFDLIAVVAGVVQTVLYCDFFYLYVTKVLKGKKLSLPA
